In US20130129746A1 (GlaxoSmithKline, published 2013):
Like-named read-outs stand apart in the source and are kept apart here. Each block holds one binder with its values, some of them ahead of it.

Columns and labels:
Human Serum Albumin [1] = target: T1, Human Serum Albumin (human, UniProt P02768 25-609); test: BIAcore SPR;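 as to koff: purified dAbs run at 1 µM, 500 nM and 50 nM over human, cynomolgus, mouse and rat serum albumin in BIAcore binding measurements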
T1 construct: mature; purified protein on CM5 chips for BIAcore; also called HSA; human SA
Description: (§1) Binding to HSA, CSA, MSA and RSA by BIAcore was confirmed using purified protein at 3 concentrations 1 μM, 500 nM and 50 nM.

Rat Serum Albumin [2] = target: T2, Rat Serum Albumin (rat, UniProt P02770 25-608); test: BIAcore SPR;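 as to koff: purified dAbs run at 1 µM, 500 nM and 50 nM over human, cynomolgus, mouse and rat serum albumin in BIAcore binding measurements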
T2 construct: mature; purified protein on CM5 chips for BIAcore; also called RSA; rat SA
T2 sequence (P02770 25-608): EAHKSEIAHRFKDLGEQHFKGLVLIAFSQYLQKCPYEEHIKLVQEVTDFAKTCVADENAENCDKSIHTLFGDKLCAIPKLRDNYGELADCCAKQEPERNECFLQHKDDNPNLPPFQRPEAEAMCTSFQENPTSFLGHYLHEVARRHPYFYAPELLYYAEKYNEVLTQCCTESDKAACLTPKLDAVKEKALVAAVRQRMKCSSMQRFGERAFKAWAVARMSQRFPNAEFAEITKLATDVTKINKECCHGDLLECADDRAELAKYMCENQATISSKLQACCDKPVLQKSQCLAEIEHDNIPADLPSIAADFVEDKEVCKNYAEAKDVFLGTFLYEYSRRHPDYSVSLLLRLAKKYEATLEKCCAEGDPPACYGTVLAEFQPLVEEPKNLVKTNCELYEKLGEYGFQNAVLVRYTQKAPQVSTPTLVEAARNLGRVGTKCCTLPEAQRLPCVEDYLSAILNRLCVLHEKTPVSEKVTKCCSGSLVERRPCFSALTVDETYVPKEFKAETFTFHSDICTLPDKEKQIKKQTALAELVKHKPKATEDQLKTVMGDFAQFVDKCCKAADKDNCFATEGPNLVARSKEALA
Description: as §1

[3] = target: T3, Cynomolgus monkey Serum Albumin (Cynomolgus monkey, UniProt A2V9Z4 25-608); test: BIAcore SPR;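 as to koff: purified dAbs run at 1 µM, 500 nM and 50 nM over human, cynomolgus, mouse and rat serum albumin in BIAcore binding measurements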
T3 construct: mature; purified protein on CM5 chips for BIAcore; also called CSA; cyno SA
T3 sequence (A2V9Z4 25-608): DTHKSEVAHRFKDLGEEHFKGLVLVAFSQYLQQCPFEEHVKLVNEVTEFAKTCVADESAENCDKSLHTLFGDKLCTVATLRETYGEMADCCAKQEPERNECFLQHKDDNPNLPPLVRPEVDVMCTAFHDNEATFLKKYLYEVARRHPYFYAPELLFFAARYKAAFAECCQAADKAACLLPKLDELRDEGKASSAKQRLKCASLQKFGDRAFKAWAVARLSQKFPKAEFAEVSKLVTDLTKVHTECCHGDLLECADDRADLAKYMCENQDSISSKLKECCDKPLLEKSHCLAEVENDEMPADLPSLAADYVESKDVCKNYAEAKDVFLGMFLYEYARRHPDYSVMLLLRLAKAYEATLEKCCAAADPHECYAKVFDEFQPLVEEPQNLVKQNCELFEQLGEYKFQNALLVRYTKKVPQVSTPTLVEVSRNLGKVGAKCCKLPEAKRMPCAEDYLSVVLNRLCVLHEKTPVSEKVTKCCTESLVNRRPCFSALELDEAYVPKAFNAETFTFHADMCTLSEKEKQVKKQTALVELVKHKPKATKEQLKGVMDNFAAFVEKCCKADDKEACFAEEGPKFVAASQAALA
Description: as §1

mouse serum albumin [4] = target: T4, mouse serum albumin (mouse, UniProt P07724 25-608); test: BIAcore SPR;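 as to koff: purified dAbs run at 1 µM, 500 nM and 50 nM over human, cynomolgus, mouse and rat serum albumin in BIAcore binding measurements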
T4 construct: mature; purified protein on CM5 chips for BIAcore; also called MSA; mouse SA
T4 sequence (P07724 25-608): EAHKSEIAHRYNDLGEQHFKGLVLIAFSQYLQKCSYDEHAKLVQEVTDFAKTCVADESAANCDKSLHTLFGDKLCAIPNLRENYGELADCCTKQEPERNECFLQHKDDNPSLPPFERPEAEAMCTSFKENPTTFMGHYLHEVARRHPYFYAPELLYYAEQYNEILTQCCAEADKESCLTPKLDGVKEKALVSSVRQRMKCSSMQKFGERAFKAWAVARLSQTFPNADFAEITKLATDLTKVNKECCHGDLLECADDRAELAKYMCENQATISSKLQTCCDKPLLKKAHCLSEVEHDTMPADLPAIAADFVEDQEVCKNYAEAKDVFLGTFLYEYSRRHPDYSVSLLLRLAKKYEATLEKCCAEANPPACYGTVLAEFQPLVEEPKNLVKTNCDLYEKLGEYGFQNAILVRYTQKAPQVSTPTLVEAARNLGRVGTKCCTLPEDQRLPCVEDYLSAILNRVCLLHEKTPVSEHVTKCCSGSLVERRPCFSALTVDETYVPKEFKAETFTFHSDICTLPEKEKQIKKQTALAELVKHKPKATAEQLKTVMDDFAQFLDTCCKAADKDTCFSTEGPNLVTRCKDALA
Description: as §1

Rat Serum Albumin [5] = target: T2, Rat Serum Albumin; test: Albumin KD column of the PK table (repeats Table 6)
mouse serum albumin [6] = target: T4, mouse serum albumin; test: as above
Human Serum Albumin [7] = target: T1, Human Serum Albumin; test: BIAcore SPR; remark: listed apart in the source
Rat Serum Albumin [8] = target: T2, Rat Serum Albumin; test: BIAcore SPR; remark: listed apart in the source
Human Serum Albumin [9] = target: T1, Human Serum Albumin; test: BIAcore SPR; remark: listed apart in the source
Excerpt: (§2) MSA antigen was obtained from Sigma (essentially fatty acid free, ˜99% (agarose gel electrophoresis), lyophilized powder Cat. No. A3559) and CSA was purified from Cynomolgus serum albumin using prometic blue resin (Amersham).

Rat Serum Albumin [10] = target: T2, Rat Serum Albumin; test: BIAcore SPR; remark: listed apart in the source
Excerpt: as §2

[11] = target: T3, Cynomolgus monkey Serum Albumin; test: BIAcore SPR; remark: listed apart in the source
Excerpt: as §2

mouse serum albumin [12] = target: T4, mouse serum albumin; test: BIAcore SPR; remark: listed apart in the source
Excerpt: as §2

Human Serum Albumin [13] = target: T1, Human Serum Albumin; test: BIAcore SPR, second independent experiment;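 also: purified domain antibodies run as analytes at 50 nM, 500 nM and 1 µM over HSA, CSA, MSA and RSA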
Description: as §1

Rat Serum Albumin [14] = target: T2, Rat Serum Albumin; test: BIAcore SPR, second independent experiment;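 also: purified domain antibodies run as analytes at 50 nM, 500 nM and 1 µM over HSA, CSA, MSA and RSA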
Description: as §1

[15] = target: T3, Cynomolgus monkey Serum Albumin; test: BIAcore SPR, second independent experiment;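 also: purified domain antibodies run as analytes at 50 nM, 500 nM and 1 µM over HSA, CSA, MSA and RSA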
Description: as §1

mouse serum albumin [16] = target: T4, mouse serum albumin; test: BIAcore SPR, second independent experiment;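 also: purified domain antibodies run as analytes at 50 nM, 500 nM and 1 µM over HSA, CSA, MSA and RSA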
Description: as §1

[17] = target: T3, Cynomolgus monkey Serum Albumin; test: BIAcore SPR; remark: listed apart in the source

Kd (Human Serum Albumin [1]): 350 nM
koff (Human Serum Albumin [1]): 0.413 s⁻¹
kon (Human Serum Albumin [1]): 1.26e+06 M⁻¹ s⁻¹
Kd (Rat Serum Albumin [2]): 200 nM
koff (Rat Serum Albumin [2]): 0.522 s⁻¹
kon (Rat Serum Albumin [2]): 2.76e+06 M⁻¹ s⁻¹
Kd [3]: ≥ 6000 nM
Kd (mouse serum albumin [4]): 130 nM
koff (mouse serum albumin [4]): 0.189 s⁻¹
kon (mouse serum albumin [4]): 1.53e+06 M⁻¹ s⁻¹
Kd (Rat Serum Albumin [5]): 200 nM
Kd (mouse serum albumin [6]): 130 nM
B1: DOM7h-11-12 (other)
VL: DIQMTQSPSSLSASVGDRVTITCRASRPIGTMLSWYQQKPGKAPKLLILFGSRLQSGVPSRFSGSGSGTDFTLTISSLQPEDFATYYCAQAGTHPTTFGQGTKVEIKR

Ka (Human Serum Albumin [7]): 1.51e+08 M⁻¹
Kd (Human Serum Albumin [7]): 6.71 nM
kon (Human Serum Albumin [7]): 1.14e+06 M⁻¹ s⁻¹
Ka (Rat Serum Albumin [8]): 5.96e+07 M⁻¹
Kd (Rat Serum Albumin [8]): 16.9 nM
kon (Rat Serum Albumin [8]): 846000 M⁻¹ s⁻¹
B2: DOM7h-11-88 (other)
VL: DIQMTQSPSSLSASVGDRVTITCRASRPIGTMLSWYQQKPGKAPKLLILAFSRLQSGVPSRFSGSGSGTDFTLTISSLQPEDFATYYCAQAGTHHTTFGQGTKVENKR
notes: Vk dAb; also called DOM7h-11-67 W108R

Kd (Human Serum Albumin [9]): 1.6 nM
Kd (Rat Serum Albumin [10]): 23.4 nM
Kd [11]: 5.2 nM
Kd (mouse serum albumin [12]): 7.6 nM
B3: DOM7h-11-56 (other)
VL: DIQMTQSPSSLSASVGDRVTISCRASRPIGTMLSWYQQKPGKAPKLLILAFSRLQSGVPSRFSGSGSGTDFTLTISSLQPEDFATYYCAQAGTHPTTFGQGTKVEIKW
notes: Vk dAb

Ka (Human Serum Albumin [9]): 5.52e+08 M⁻¹
Kd (Human Serum Albumin [9]): 1.8 nM
kon (Human Serum Albumin [9]): 1.22e+06 M⁻¹ s⁻¹
Ka (Rat Serum Albumin [10]): 3.42e+07 M⁻¹
Kd (Rat Serum Albumin [10]): 29.2 nM
kon (Rat Serum Albumin [10]): 566000 M⁻¹ s⁻¹
Ka [11]: 1.63e+08 M⁻¹
Kd [11]: 6.1 nM
kon [11]: 1.34e+06 M⁻¹ s⁻¹
Kd (mouse serum albumin [12]): 10.9 nM
B4: DOM7h-11-57 (other)
VL: DIQMTQSPSSLSASVGDRVTITCRASRPIGTMLSWYQQKPGKAPKLLILAFSRLQSGVPSRFSGSGSGTDFTLTISNLQPEDFATYYCAQAGTHPTTFGQGTKVEIKW
notes: Vk dAb

Kd (Human Serum Albumin [1]): 36 nM
koff (Human Serum Albumin [1]): 0.051 s⁻¹
kon (Human Serum Albumin [1]): 3.4e+06 M⁻¹ s⁻¹
Kd (Rat Serum Albumin [2]): 80 nM
koff (Rat Serum Albumin [2]): 0.06 s⁻¹
kon (Rat Serum Albumin [2]): 1.64e+06 M⁻¹ s⁻¹
Kd [3]: 10000 nM
koff [3]: 1.36 s⁻¹
kon [3]: 225000 M⁻¹ s⁻¹
Kd (mouse serum albumin [4]): 150 nM
koff (mouse serum albumin [4]): 0.024 s⁻¹
kon (mouse serum albumin [4]): 440000 M⁻¹ s⁻¹
Kd (Human Serum Albumin [13]): 32000 nM
koff (Human Serum Albumin [13]): 0.27 s⁻¹
kon (Human Serum Albumin [13]): 8390 M⁻¹ s⁻¹
Kd (Rat Serum Albumin [14]): 29000 nM
koff (Rat Serum Albumin [14]): 0.37 s⁻¹
kon (Rat Serum Albumin [14]): 13000 M⁻¹ s⁻¹
Kd [15]: 65000 nM
koff [15]: 0.48 s⁻¹
kon [15]: 7300 M⁻¹ s⁻¹
Kd (mouse serum albumin [16]): 1600 nM
koff (mouse serum albumin [16]): 0.0623 s⁻¹
kon (mouse serum albumin [16]): 40000 M⁻¹ s⁻¹
B5: DOM7h-11-18 (other)
VL: DIQMTQSPSSLSASVGDRVTITCRASRPIGTMLSWYQQKPGKAPKLLIWFGSRLQSGVPSRFSGSGSGTDFTLTISSLQPEDFATYHCAQAGTHPTTFGQGTKVEIKR

Kd (Human Serum Albumin [9]): 3.2 nM
Kd (Rat Serum Albumin [10]): 27.1 nM
Kd [11]: 5.9 nM
Kd (mouse serum albumin [12]): 10 nM
B6: DOM7h-11-69 (other)
VL: DIQMTQSPSSLSASVGDRVTITCRASRPIGTMLSWYQQKPGKAPKLLILAFSRLQSGVPSRFSGSGSGTDFTLTISSLQPEDFATYYCAQAGVHPTTFGQGTKVEIKR
notes: Vk dAb

Ka (Human Serum Albumin [7]): 9.51e+07 M⁻¹
Kd (Human Serum Albumin [7]): 10.7 nM
kon (Human Serum Albumin [7]): 790000 M⁻¹ s⁻¹
Ka (Rat Serum Albumin [8]): 2.8e+07 M⁻¹
Kd (Rat Serum Albumin [8]): 37.8 nM
kon (Rat Serum Albumin [8]): 560000 M⁻¹ s⁻¹
Ka [17]: 1.08e+08 M⁻¹
Kd [17]: 13.4 nM
kon [17]: 833000 M⁻¹ s⁻¹
B7: DOM7h-11-86 (other)
VL: DIQMTQSPSSLSASVGDRVTITCRASRPIGTMLSWYQQKPGKAPKLLILAFSRLQSGVPSRFSGSGSGTDFTLTISSLQPEDVATYYCAQAGTHPTTFGQGTKVEIKR
notes: Vk dAb; also called DOM7h-11-65 W108R/N106I

Kd (Human Serum Albumin [1]): 65 nM
koff (Human Serum Albumin [1]): 0.11 s⁻¹
kon (Human Serum Albumin [1]): 1.8e+06 M⁻¹ s⁻¹
Kd (Rat Serum Albumin [2]): 28 nM
koff (Rat Serum Albumin [2]): 0.091 s⁻¹
kon (Rat Serum Albumin [2]): 980000 M⁻¹ s⁻¹
Kd [3]: ≥ 10000 nM
Kd (mouse serum albumin [4]): 100 nM
koff (mouse serum albumin [4]): 0.037 s⁻¹
kon (mouse serum albumin [4]): 1.4e+06 M⁻¹ s⁻¹
Kd (Human Serum Albumin [13]): 38000 nM
koff (Human Serum Albumin [13]): 0.209 s⁻¹
kon (Human Serum Albumin [13]): 5400 M⁻¹ s⁻¹
Kd (Rat Serum Albumin [14]): 17000 nM
koff (Rat Serum Albumin [14]): 0.14 s⁻¹
kon (Rat Serum Albumin [14]): 8100 M⁻¹ s⁻¹
Kd [15]: 375000 nM
koff [15]: 0.62 s⁻¹
kon [15]: 1700 M⁻¹ s⁻¹
Kd (mouse serum albumin [16]): 18000 nM
koff (mouse serum albumin [16]): 0.088 s⁻¹
kon (mouse serum albumin [16]): 4900 M⁻¹ s⁻¹
B8: DOM7h-11-19 (other)
VL: DIQMTQSPSSLSASVGDRVTITCRASRPIGTMLSWYQQKPGKAPKLLILFGSRLQSGVPSRFSGSGSGTDFTLTISSLQPEDFATYYCAQTGTHPTTFGQGTKVEIKR
